Assay results published in the Immune Epitope Database (IEDB).

Key:
Assay in all cases: IEDB peptide-MHC binding, purified MHC/competitive/radioactivity; filed as Kd, often an IC50 or EC50 that approximates it; ≥ and ≤ were set here for values at or beyond the usual limits of such assays
HLA-A*03:01 = molecular target: HLA-A*03:01
HLA-A*31:01 = molecular target: HLA-A*31:01
HLA-A*68:01 = molecular target: HLA-A*68:01
HLA-A*11:01 = molecular target: HLA-A*11:01
HLA-A*33:01 = molecular target: HLA-A*33:01
HLA-B*53:01 = settings: source organism: Plasmodium falciparum 3D7
HLA-B*54:01 = settings: source organism: Plasmodium falciparum 3D7
HLA-B*51:01 = settings: source organism: Plasmodium falciparum 3D7
HLA-A*02:01 = molecular target: HLA-A*02:01
HLA-B*07:02 = settings: source organism: Plasmodium falciparum 3D7
HLA-B*35:01 = settings: source organism: Plasmodium falciparum 3D7
HLA-A*68:02 = settings: source organism: Plasmodium falciparum
HLA-A*02:02 = settings: source organism: Plasmodium falciparum
HLA-A*02:06 = settings: source organism: Plasmodium falciparum
HLA-A*02:03 = settings: source organism: Plasmodium falciparum
[1] = source organism: Plasmodium falciparum 3D7
[2] = source organism: Plasmodium falciparum

Sequence	Kd (HLA-A*03:01; [2]) [nM]	Kd (HLA-A*31:01; [2]) [nM]	Kd (HLA-A*11:01; [2]) [nM]	Kd (HLA-A*33:01; [2]) [nM]	Kd (HLA-A*68:01; [2]) [nM]	also measured
RLHSDASKNK						Kd (HLA-A*03:01; [1]): 256 nM; Kd (HLA-A*31:01; [1]): ≥ 10000 nM; Kd (HLA-A*68:01; [1]): ≥ 10000 nM; Kd (HLA-A*11:01; [1]): 600 nM; Kd (HLA-A*33:01; [1]): ≥ 10000 nM
HVLSHNSYEK	407	≥ 10000	200	≥ 10000		
IIRLHSDASK						Kd (HLA-A*03:01; [1]): 324 nM; Kd (HLA-A*31:01; [1]): ≥ 10000 nM; Kd (HLA-A*68:01; [1]): ≥ 10000 nM; Kd (HLA-A*11:01; [1]): ≥ 10000 nM; Kd (HLA-A*33:01; [1]): ≥ 10000 nM
LLACAGLAY						Kd (HLA-A*31:01; [1]): ≥ 10000 nM; Kd (HLA-A*68:01; [1]): 2500 nM; Kd (HLA-A*33:01; [1]): 6590 nM
TPYAGEPAPF						Kd (HLA-B*53:01): 158 nM; Kd (HLA-B*54:01): ≥ 10000 nM; Kd (HLA-B*51:01): 15 nM
GLIMVLSFL						Kd (HLA-A*02:01; [2]): 22 nM
FLIFFDLFLV						Kd (HLA-A*02:01; [1]): 12 nM
VTCGNGIQVR	6880	15	11		444	
HPSDGKCNL						Kd (HLA-B*53:01): 3320 nM; Kd (HLA-B*54:01): ≥ 10000 nM; Kd (HLA-B*51:01): ≥ 10000 nM; Kd (HLA-B*07:02): 275 nM; Kd (HLA-B*35:01): ≥ 10000 nM
GTGSGVSSKK	1100	≥ 10000	353	≥ 10000	≥ 10000	
GTGSGVSSK	126	≥ 10000	40	≥ 10000	3480	
RINEEKHEK	786	486	40	≥ 10000	≥ 10000	
ILSVSSFLFV						Kd (HLA-A*68:02): 2100 nM; Kd (HLA-A*02:02): 3580 nM; Kd (HLA-A*02:06): 587 nM; Kd (HLA-A*02:03): 19 nM
KILSVFFLA	18	7830	3.2	5920	8890	Kd (HLA-A*02:06): 8 nM
GVSENIFLK	151	2250	5	8290	10	
VLYNTEKGR	282	8570	3160		1230	
KSLYDEHIK	≥ 10000	≥ 10000	231	≥ 10000	≥ 10000	
ALLACAGLAY						Kd (HLA-A*03:01; [1]): 355 nM; Kd (HLA-A*31:01; [1]): 5460 nM; Kd (HLA-A*68:01; [1]): ≥ 10000 nM; Kd (HLA-A*33:01; [1]): 5090 nM
SLLSTNLPY						Kd (HLA-A*03:01; [1]): 1150 nM; Kd (HLA-A*31:01; [1]): ≥ 10000 nM; Kd (HLA-A*68:01; [1]): ≥ 10000 nM; Kd (HLA-A*11:01; [1]): 353 nM; Kd (HLA-A*33:01; [1]): ≥ 10000 nM
SLYDEHIKK	28	≥ 10000	8.6	≥ 10000	615	
VLLGGVGLVL						Kd (HLA-A*02:02): ≥ 10000 nM
VLSHNSYEK	79	≥ 10000	19	≥ 10000	2860	
FILVNLLIFH	733	1960	1330	397		
KSLYDEHIKK	1000	≥ 10000	29	≥ 10000	≥ 10000	
FLKENKLNK	145	≥ 10000	3750	2640	444	
